Experimental data reported in the DeepSol protein solubility set.

test: soluble on expression in E. coli; label from the status in PepcDB or PDB records

Row | Sequence | soluble on expression in E. coli
1 | MSLQLLAPGANTALANAHCSWNLESGTSSVFGEYAAVALLAVNEKRQPMGDPALLHQEQSWMEWSGGPQDVGCTLKLDRLPAGSDRVLLMVYVYAAMGPIRDFASLRLKVDANIEHRLDLRDNGEAAIIIGEFYKRNDQWKFRALSEGSAYGLSAFGRKIGLEVDDRHPRRPSGGSGGPAGGPRHESATGTAFVVGPAHVMTCAHVIEDMGVFYINSLEGRYKAEAVVIDRRNDIALLRVQGAPPLSAVTFREGQGCEPGDTVAVLGYPLASISGGGLQVTQGGISGLFGLHNDASLFQFTAPIQPGSSGSPLFDNGGAVIGMVTSTVPDGQNMNFAVKSALLMSFLQACRIDAPHARAERSYTTTEISRTFQSSLWLVEASREGHHHHHH | soluble
2 | MGSDKIHHHHHHMSELTDLLLQGPRSAPELRQRLAISQATFSRLVAREDRVIRFGKARATRYALLRPYRGIERIPVWRVDDTGKAHKFADIRLCWPQGSCLVTGADGDEQWFDGLPWYLTDLRPQGFLGRAWGRKLAAQLNLTDDIRLWQEEDVLYALTVFNGEYTGGWLVGEGNYQRWITAQHPAEIPLDQKLTHYEQLASDALAGEIVGSSAGGEQPKFTYYAQTPSGNKHVLVKFTVPQQTAVSQRWGDLLIAESIAAQILRDGGIHAIESTVLVTSNRQVFLEAERFDCKGNDGRLPIVSLEAVQSEFISSPGSWPQAMRRLCEQQLVTHQSVAQTEVIWAFGRLIANSDMHAGNLSFYLSEPPFALTPVYDMLPMVYAPNSAGMLRDAAIEVKFDLNVSKSAWLTAIPLAQQFWQTVARDPRISEAFRHIAQEMPEKIRQIEEKVARMGG | not soluble
3 | MAAGFGRCCRVLRSISRFHWRSQHTKANRQREPGLGFSFEFTEQQKEFQATARKFAREEIIPVAAEYDKTGEYPVPLIRRAWELGLMNTHIPENCGGLGLGTFDACLISEELAYGCTGVQTAIEGNSLGQMPIIIAGNDQQKKKYLGRMTEEPLMCAYCVTEPGAGSDVAGIKTKAEKKGDEYIINGQKMWITNGGKANWYFLLARSDPDPKAPANKAFTGFIVEADTPGIQIGRKELNMGQRCSDTRGIVFEDVKVPKENVLIGDGAGFKVAMGAFDKTRPVVAAGAVGLAQRALDEATKYALERKTFGKLLVEHQAISFMLAEMAMKVELARMSYQRAAWEVDSGRRNTYYASIAKAFAGDIANQLATDAVQILGGNGFNTEYPVEKLMRDAKIYQIYEGTSQIQRLIVAREHIDKYKN | soluble
4 | MRISAKGRYALAAVISMAQQYNNGEYITVISISEKLGISKIFLEQVFSSLKKAKIVSSTKGVQGGYQLTRTPSQITVLDVLLSVEVSLFEQTQETVSDKAPDIEQALRSSVFDVLDKNIKQTLSTITIADLVAEAEKHKDYNALMFYI | soluble
5 | MGSDKIHHHHHHVVRKINFMNLIELLKKIKRKILAQMFNLNYRPYTHTTVIFESFGGRQISDSPLAIYKELKKTHPEYRLIWVVNKGLATQAEKNGYDYVIRGSFKWVRTIEKAQVWVENARLPQWVRKPDHIKLIQTWHGTPLKKLGLDIKNVVMPGTNTERYHQNFVREANRWDVLISPNTYSTNIFRQAFGYQNKIVEIGYPRNDKLANPTKEEIKLLKQKLGIPLDKKVIMYAPTYRDNQFFQKGKYSFELPFSLKEFQERFGSNAVLLLRMHYLIANSMDISGFEDFAYDVSSYADISELYLVSDLLITDYSSVFFDYAYLKRPILFYPYDYEIYKDELRGFYLDYQKDLPGKIAYNSVDLYDEIENELKENDISNNQQFEMFYKRFCGLNAGNASKRIVEEIERNL | not soluble
6 | MGEVFKMDGLASTILEVHKPAKLEDIPDEDPIAIILALKWLEYLCERAGVENVSDILDFYYMLGWLGDKALAKLLKFLKGIKVDEENVVEGSGKLNITDHIISLLFIERLNGKKISAELLDKIEWELRKIKKGAEQFYGI | not soluble
7 | SLKLLIEEFIPVEEISEEAKKEKLGNAKPPIFSLHYWWARKPLITARAAVLGALISKENLPMIVGNGDLKTNLLRILRIPKDINEGPRAHTQDPPAEYLKEAIIKTWGEIPTVLDPFAGGGSIPFEALRLGCNAVAVDYNPVAYLILKETLEYPKKYGMKLIL | soluble
8 | MAHHHHHHMEEHPKILSIAGSDSCAGAGMQADLKTAMSLGCHCCTILVVLTAQNTKEVKSIIEVDEKFIVEQLDAIFTDITIEVVKLGVLYSKKIISLIHNYITNINKMREKKLLVVFDPVFVSSSGCMLVENLDYVKYALDLICPLSCIITPNFYECKVILEALNFNIDINNMRTSDLCKLVTEKLNINACLFKSCNIDINTEDENKLYAVDHLCIKNDNDYDTKIKQNISYDVYKLKSKRNPQKDIHGTGCTLSTAISCFLSKKYDIIQACIESKKYIYNCINYAYDLGSKSQGLNHLKAAQHLTDFRELQVIKVD | soluble
9 | MGSDKIHHHHHHMENIALLGIDLGKHIFHVHAQDKAGHQLWRRKLNRKQLVELVANTPACRIVMESCSGAHHFARRFLQFGHDVKLIAPQYVKPFVKGNKNDFVDAEAICEAASRPAMRFAAVRNEQQQTISALHRTRDMLIRSRGSAHNQIHAYLVEFGVAIGTGPAAIRKLPAVLQAMTYRRALSPCWSNFGITFFISTSRSPLSSAN | not soluble
10 | MGSDKIHHHHHHMQRDLGKNVKLFNDIKADDLSVMLSCLGVKNQQYEKRSIIIMAEDNVDHVGVVLRGAVLIVKEDFSGNRSIVDHIGQYEMFGEAFACAGIQKSPVTVVAAEKSEIMWIQFRRIFNTCSMSCVFHAKLIENMMKVLAVKNLQMNQKLEITSKRNLRDKLMAYLLIQAKEAKSFDFIIPLNRSELADYLYVDRSALSRELCKMRDEGLIEFKKNHFCMSPM | not soluble
11 | MINLQDVSKVYKSKHGDVNAVQNVSLSIKKGEIFGIIGYSGAGKSSLIRLLNGLEKPTSGTVEVAGTKINEVNGRGLRKARHEISMIFQHFNLLWSRTVRDNIMFPLEIAGVKKSERIKRANELIKLVGLEGKEKSYPSQLSGGQKQRVGIARALANNPKVLLCDEATSALDPQTTDSILDLLSDINERLGLTIVLITHEMHVIRKICNRVAVMENGKVVEEGEVLDVFKNPKEQMTKRFVQQVTEPEETKETLQHLLDDTASGKMVQLTFVGESAEQPLITEMIRNFNVSVNILQGKISQTKDGAYGSLFIHIDGDEEEVQNVIRFINDKQVKAEVITNV | not soluble
12 | MLSRTLRPISKVLRSSAKYSQAAGLPLNEGSPAPLPSEDRAISAKVSSLVEEIANLSLLDVSDLNWALKKRLNIPDQPLMAAAAAAPAAQAEAEAASDVPQKMTFTVKLTKFDDTKKIAIIKEIRNAIPGLNLVQAKKFVETAPVNVKEDLGKAEADELKAILEKAGATIEIV | not soluble
13 | MGSDKIHHHHHHMQNPAIGNVADTTASDFAELPATASHGPLRIEYRWVNAAAGNAPIAVFLHEGLGSVTMWRDWPQALCERLGMRGLVYSRPGYGLSTPRPHDVKWPADFMTAQARDILPALLDALCIDMRERRRMWVIGHSDGGSITLLYAALYPEELAGAVAIAPHVFVEDISVESIAQTRQLYETTDLRSKLGRYHADVDSAFYGWNDIWLNPAFRQWSIAGELTSIRKPLLAVQGHDDNYGTMAQIDTIAAHVPHAQLVKLDACGHSPHRDAPQPLNKAIAAFVLKDGVA | not soluble
14 | MIEKVYCQEVKPELDGKKVRLAGWVYTNMRVGKKIFLWIRDSTGIVQAVVAKNVVGEETFEKAKKLGRESSVIVEGIVKADERAPGGAEVHVEKLEVIQAVSEFPIPENPEQASPELLLDYRHLHIRTPKASAIMKVKETLIMAAREWLLKDGWHEVFPPILVTGAVEGGATLFKLKYFDKYAYLSQSAQLYLEAAIFGLEKVWSLTPSFRAEKSRTRRHLTEFWHLELEAAWMDLWDIMKVEEELVSYMVQRTLELRKKEIEMFRDDLTTLKNTEPPFPRISYDEAIDILQSKGVNVEWGDDLGADEERVLTEEFDRPFFVYGYPKHIKAFYMKEDPNDPRKVLASDMLAPEGYGEIIGGSQREDDYDKLLNRILEEGMDPKDYEWYLDLRRYGSVPHSGFGLGVERLVAWVLKLDHIRWAALFPRTPARLYP | soluble
15 | MSLAKVFTQEEREKIKGQVVELVRQSGRETLRQLEVKTGATRYLMSVLARELVASGDVYNSGYGLFPSEQARKDWQNARKKLSRAKVKKPAVVDPDLIWSSPDGEIRRYDSRLNIICRECRKSEAMQRVLAFYQGNFQEAVLEGHHHHHH | not soluble
16 | MHCPFCRHPDSRVIDSRETDEGQAIRRRRSCPECGRRFTTVETAVLAVVKRSGVTEPFSREKVISGVRRACQGRQVDDDALNLLAQQVEDSVRAAGSPEIPSHDVGLAILGPLRELDEVAYLRFASVYRSFSSADDFAREIEALRAHRNLSAHS | soluble
